Results on 34 sequences are retold here after the supplement of paper PMC7877785.

± gives the uncertainty stated by the source.

This data set in a line: self-splicing fitness, log relative to wild type (ln ratio); higher = more splicing; Tetrahymena group I intron in knt gene, E. coli kanamycin selection, DiMSum; sequences stand for … in CUCUCU…GGAGGGAAAAGUUAUCAGGCAUGCACCUGGUAGCUAGUCUUUAAACCAAUAGAUUGCAUCGGUUUAAAAGGCAAGACCGUCAAAUUGCGGGAAAGGGGUCAACAGCCGUUCAGUACCAAGUCUCAGGGGAAACUUUGAGAUGGCCUUGCAAAGGGUAUGGUAAUAAGCUGACGGACAUGGUCCUAACCACGCAGCCAAGUCCUAAGUCAACAGAUCUUCUGUUGAUAUGGAUGCAGUUCACAGACUAAAUGUCGGUCGGGGAAGAUGUAUUCUUCUCAUAAGAUAUAGUCGGACCUCUCCUUAAUGGGAGCUAGCGGAUGAAGUGAUGCAACACUGGAGCCGCUGGGAACUAAUUUGUAUGCGAAAGUAUAUUGAUUAGUUUUGGAGUACUCGUGGUCG
An outline of the steps: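 Pooled colonies went to amplicon sequencing on an Illumina HiSeq 2500 after six replicate transformations. The plates were LB agar with 100 μg/mL carbenicillin, 50 μM IPTG and 0.2% rhamnose, with or without 25 μg/mL kanamycin, incubated overnight at 37°C or 30°C. The E. coli BL21(DE3) library had all eight P1ex-region intron nucleotides randomised, the intron placed in the knt kanamycin-resistance gene on pET-22b(+). DiMSum fitness is the error-weighted combination of replicate fold changes, kanamycin against none, normalised to wild type.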

Turning to CCAUAGCAAUAUUACGUUUA, the “self-splicing fitness (ln)” value by setting is: (30 °C) -3.25 ± 0.23; (37 °C) -2.68 ± 0.25.
Taken in the same sequence, the figures for GACCAGCAAUAUUACGAAUC were -0.584 ± 0.096 and -0.196 ± 0.1.
In the case of CAGUAGCAAUAUUACGAUUU, the “self-splicing fitness (ln)” value runs as follows: (30 °C) -2.52 ± 0.19; (37 °C) -1.45 ± 0.17.
With GUAAAGCAAUAUUACGCUAC, the “self-splicing fitness (ln)” value runs as follows: (30 °C) -4.2 ± 0.32; (37 °C) -1.87 ± 0.37.
With GGCUAGCAAUAUUACGGAGG, the “self-splicing fitness (ln)” value is, setting by setting: (30 °C) -3.21 ± 0.26; (37 °C) -1.58 ± 0.2.
Take GUCAAGCAAUAUUACGGGGC: the “self-splicing fitness (ln)” value was -5.02 ± 0.45 (30 °C) and -3.14 ± 0.27 (37 °C).
Consider GGAUAGCAAUAUUACGCUAU, for which the “self-splicing fitness (ln)” value (37 °C) is -2.05 ± 0.31.
In the case of UGGCAGCAAUAUUACGUUGA, the “self-splicing fitness (ln)” value is, setting by setting: (30 °C) -1.43 ± 0.13; (37 °C) -0.707 ± 0.14.
Consider UCCAAGCAAUAUUACGUUGA, for which the “self-splicing fitness (ln)” value was -0.725 ± 0.061 (30 °C) and -0.109 ± 0.073 (37 °C).
The like results for GUUCAGCAAUAUUACGCUCG were, in that order, 0.167 ± 0.12 and 0.0872 ± 0.15.
Take CUCUAGCAAUAUUACGAGUU: the “self-splicing fitness (ln)” value reads like this: (30 °C) -3.44 ± 0.38; (37 °C) -3.55 ± 0.42.
The like results for UGUUAGCAAUAUUACGAAUU were, in that order, -1.44 ± 0.11 and -1.6 ± 0.22.
On to AAACAGCAAUAUUACGUAGA, for which the “self-splicing fitness (ln)” value (30 °C) is -2.31 ± 0.1 and the “self-splicing fitness (ln)” value (37 °C) was -0.368 ± 0.092.
Taken in the same sequence, the figures for AGUCAGCAAUAUUACGUGUU were -0.875 ± 0.061 and -0.392 ± 0.096.
For AUUAAGCAAUAUUACGCCUG, the “self-splicing fitness (ln)” value is, setting by setting: (30 °C) -0.765 ± 0.15; (37 °C) -0.543 ± 0.17.
With GACAAGCAAUAUUACGGCGC, the “self-splicing fitness (ln)” value reads like this: (30 °C) -0.29 ± 0.098; (37 °C) 0.11 ± 0.12.
The like results for GUUAAGCAAUAUUACGGGUG were, in that order, -3.29 ± 0.15 and -2.39 ± 0.14.
The like results for CCUCAGCAAUAUUACGCAGA were, in that order, -3.39 ± 0.34 and -2.27 ± 0.33.
The like results for GUUAAGCAAUAUUACGGACG were, in that order, -1.07 ± 0.12 and -1.3 ± 0.14.
On to CACAAGCAAUAUUACGAGGC, for which the “self-splicing fitness (ln)” value is -3.54 ± 0.16 (30 °C) and -2.87 ± 0.19 (37 °C).
The like results for UUUCAGCAAUAUUACGACCU were, in that order, -1.28 ± 0.25 and -0.834 ± 0.43.
Consider GUAGAGCAAUAUUACGACCC, for which the “self-splicing fitness (ln)” value (30 °C) stood at 0.536 ± 0.15 and the “self-splicing fitness (ln)” value (37 °C) was found to be 0.745 ± 0.18.
For CACGAGCAAUAUUACGGAGA, the “self-splicing fitness (ln)” value (30 °C) is -3.38 ± 0.2 and the “self-splicing fitness (ln)” value (37 °C) is -2.85 ± 0.25.
Taken in the same sequence, the figures for AGGAAGCAAUAUUACGGACA were -0.516 ± 0.12 and -0.384 ± 0.15.
As to GGUCAGCAAUAUUACGAAGC, the “self-splicing fitness (ln)” value (30 °C) is -0.892 ± 0.11 and the “self-splicing fitness (ln)” value (37 °C) is -0.0665 ± 0.13.
On to AUUCAGCAAUAUUACGACCU, for which the “self-splicing fitness (ln)” value is, setting by setting: (30 °C) -0.21 ± 0.095; (37 °C) 0.317 ± 0.12.
Taken in the same sequence, the figures for CCUAAGCAAUAUUACGUGGG were -3.51 ± 0.16 and -2.5 ± 0.15.
As for ACAAAGCAAUAUUACGGCCA, the “self-splicing fitness (ln)” value (30 °C) was -1.13 ± 0.14 and the “self-splicing fitness (ln)” value (37 °C) is -0.00489 ± 0.11.
For CGGGAGCAAUAUUACGGUCG, the “self-splicing fitness (ln)” value (30 °C) is -2.77 ± 0.24 and the “self-splicing fitness (ln)” value (37 °C) was -2.43 ± 0.27.
Consider GCUUAGCAAUAUUACGAUCU, for which the “self-splicing fitness (ln)” value (30 °C) was -1.12 ± 0.12 and the “self-splicing fitness (ln)” value (37 °C) is 0.155 ± 0.13.
With CCGUAGCAAUAUUACGGGGC, the “self-splicing fitness (ln)” value (30 °C) was -2.28 ± 0.24 and the “self-splicing fitness (ln)” value (37 °C) was -2.31 ± 0.34.
Regarding AAACAGCAAUAUUACGAGAG, the “self-splicing fitness (ln)” value was -2.76 ± 0.18 (30 °C) and -2.91 ± 0.16 (37 °C).
With GUCGAGCAAUAUUACGAGCA, the “self-splicing fitness (ln)” value (30 °C) is -1.76 ± 0.3.
With AUUGAGCAAUAUUACGGGUU, the “self-splicing fitness (ln)” value (30 °C) was -3.92 ± 0.25 and the “self-splicing fitness (ln)” value (37 °C) is -3.31 ± 0.21.
